Assay [1] has as its target mNG::PAR-2(L109R) (endogenously tagged PAR-2 with L109R) (C. elegans).
Assay [2] has as its target PAR-2 RING domain (PAR-2 residues 40-120, core RING domain and flanking dimerization helices) (C. elegans). Briefly: SEC-MALS; input sample 0.75 mg/ml, wild type compared with L109R; Superdex 75 Increase 10/300 GL, 20 mM Tris-HCl, 150 mM NaCl, 0.5 mM TCEP pH 7.5. (In gel filtration, larger molecules generally elute earlier.)
Assay [3] shares this target. The assay is described as follows: SEC-MALS; input samples from 10 to 0.5 mg/ml, 100 µl on Superdex 75 Increase 10/300 GL, 20 mM Tris-HCl, 150 mM NaCl, 0.5 mM TCEP pH 7.5, 1.0 ml/min; weight-averaged molecular weight fitted to a monomer-dimer model.
Assay [4] shares this target. The assay is described as follows: AUC; sedimentation equilibrium, interference data, 20,000 and 24,000 rpm, three PAR-2 RING concentrations, 20 mM Tris-HCl, 150 mM NaCl, 0.5 mM TCEP; global fit to a monomer-dimer model (SEDPHAT); dimer to monomers.
Assay [5] has as its target PAR-2 RING domain (residues 40-120) L109R (C. elegans). The assay is described as follows: SEC-MALS; input sample 0.75 mg/ml, wild type compared with L109R; Superdex 75 Increase 10/300 GL, 20 mM Tris-HCl, 150 mM NaCl, 0.5 mM TCEP pH 7.5.

The results in this text go back to PMC11294563.

In turn, “mNG::PAR-2(L109R) (endogenously tagged PAR-2 with L109R) (natural protein)” came in with a fold reduction in dimerization affinity against PAR-2(WT), from the simultaneous fit of the model to membrane and cytoplasmic concentrations in embryos (common KD^mem) in assay [1] of 6 fold.

The stoichiometry N is a count of units in the complex or per binding partner. Usually Kd stands for a measure of binding affinity in units of concentration. In turn, “PAR-2 RING domain (PAR-2 residues 40-120, core RING domain and flanking dimerization helices) (domain or fragment)” registered a dimer fraction at 0.75 mg/ml in assay [2] of 35%. The substance also displayed a stoichiometry N in assay [3] of 2. The substance also displayed a Kd in assay [4] of 358 nM.

In assay [5], “PAR-2 RING domain (residues 40-120) L109R (domain or fragment)” showed a dimer fraction at 0.75 mg/ml of 5% and a fold reduction in dimer affinity against wild type of 10 fold.
